Blank lines part the entries; values can stand above or below the binder they belong to.
Experiments:
[1] = molecular target: T1, LRP6 (low-density lipoprotein receptor-related protein 6) (UniProt O75581 20-1370, limits assumed); assay: cell-based or functional assay
T1 sequence (looked up): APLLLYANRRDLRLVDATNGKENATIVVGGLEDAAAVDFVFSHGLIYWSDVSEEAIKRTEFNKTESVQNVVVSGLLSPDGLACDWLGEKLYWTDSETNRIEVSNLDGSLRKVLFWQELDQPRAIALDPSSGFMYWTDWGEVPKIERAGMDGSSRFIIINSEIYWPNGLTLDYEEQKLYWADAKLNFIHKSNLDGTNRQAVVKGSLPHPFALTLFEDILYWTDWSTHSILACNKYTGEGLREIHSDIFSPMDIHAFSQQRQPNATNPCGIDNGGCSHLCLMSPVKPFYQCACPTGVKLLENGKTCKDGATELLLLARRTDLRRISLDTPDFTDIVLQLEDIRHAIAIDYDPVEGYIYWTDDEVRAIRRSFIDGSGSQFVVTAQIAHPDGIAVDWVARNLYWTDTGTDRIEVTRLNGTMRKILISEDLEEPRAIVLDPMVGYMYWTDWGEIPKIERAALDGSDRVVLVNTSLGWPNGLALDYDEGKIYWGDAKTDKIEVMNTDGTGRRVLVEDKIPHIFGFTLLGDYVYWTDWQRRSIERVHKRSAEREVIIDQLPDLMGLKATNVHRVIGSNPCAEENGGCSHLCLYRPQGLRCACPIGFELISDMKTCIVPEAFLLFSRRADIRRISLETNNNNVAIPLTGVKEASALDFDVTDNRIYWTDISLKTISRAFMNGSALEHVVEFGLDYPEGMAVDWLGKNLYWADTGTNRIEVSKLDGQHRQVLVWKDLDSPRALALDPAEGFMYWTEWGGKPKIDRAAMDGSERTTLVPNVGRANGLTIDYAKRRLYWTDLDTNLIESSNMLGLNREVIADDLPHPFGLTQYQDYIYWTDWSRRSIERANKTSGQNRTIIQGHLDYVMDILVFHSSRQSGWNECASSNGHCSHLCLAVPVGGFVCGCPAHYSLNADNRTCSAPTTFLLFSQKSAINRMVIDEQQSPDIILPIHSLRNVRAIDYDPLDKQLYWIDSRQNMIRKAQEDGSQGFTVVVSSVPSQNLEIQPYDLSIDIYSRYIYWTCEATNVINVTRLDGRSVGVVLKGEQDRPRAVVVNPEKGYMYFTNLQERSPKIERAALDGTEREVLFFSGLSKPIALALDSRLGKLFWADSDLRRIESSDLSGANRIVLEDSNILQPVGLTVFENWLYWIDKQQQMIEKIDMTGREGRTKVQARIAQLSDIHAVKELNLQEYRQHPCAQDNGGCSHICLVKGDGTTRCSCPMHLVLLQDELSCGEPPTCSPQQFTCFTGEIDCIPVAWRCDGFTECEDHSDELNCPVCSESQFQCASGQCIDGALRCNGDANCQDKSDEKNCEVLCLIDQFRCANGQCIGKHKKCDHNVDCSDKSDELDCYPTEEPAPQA

[2] = molecular target: T1, LRP6 (low-density lipoprotein …); assay: cell-based or functional assay; remark: listed apart in the source

TOPFLASH % Wnt Maxima [1]: 42 % Wnt Maxima
B1: CT0003 (Table 5: FZD Diabody-Fc-LRP scFv; paratopes 5016; 2539, 2542) (bispecific antibody)
chain 1: MNLLLILTFVAAAVAEFEVQLVESGGGLVQPGGSLRLSCAASGFNISSYYIHWVRQAPGKGLEWVASIYSSYGYTSYADSVKGRFTISADTSKNTAYLQMNSLRAEDTAVYYCARTVRGSKKPYFSGWAMDYWGQGTLVTVSSGGGGSDIQMTQSPSSLSASVGDRVTITCRASQSVSSAVAWYQQKPGKAPKLLIYSASSLYSGVPSRFSGSRSGTDFTLTISSLQPEDFATYYCQQYSWGPFTFGQGTKVEIKLEDKTHTKVEPKSSDKTHNCPPCPAPELLGGPSVFLFPPKPKDTLMISRTPEVTCVVVDVSHEDPEVKFNWYVDGVEVHNAKTKPREEQYNSTYRVVSVLTVLHQDWLNGKEYKCKVSNKALPAPIEKTISKAKGQPREPQVYTLPPIRELMTSNQVSLSCAVKGFYPSDIAVEWESNGQPENNYKTTPPVLDSDGSFFLVSKLTVDKSRWQQGNVFSCSVMHEALHNHYTQKSLSLSPGKSGSETPGTSESATPESGGGEVQLVESGGGLVQPGGSLRLSCAASGFNIHSSSIHWVRQAPGKGLEWVAATYSSFGSITYADSVKGRFTISADTSKNTAYLQMNSLRAEDTAVYYCARYHHPFGYALDYWGQGTLVTVSSGTTAASGSSGGSSSGADIQMTQSPSSLSASVGDRVTITCRASQSVSSAVAWYQQKPGKAPKLLIYSASSLYSGVPSRFSGSRSGTDFTLTISSLQPEDFATYYCQQGVYLFTFGQGTKVEIK
chain 2: MNLLLILTFVAAAVAEFEVQLVESGGGLVQPGGSLRLSCAASGFNISYSSIHWVRQAPGKGLEWVAYISSYYGYTYYADSVKGRFTISADTSKNTAYLQMNSLRAEDTAVYYCARAHYFPWAGAMDYWGQGTLVTVSSGGGGDIQMTQSPSSLSASVGDRVTITCRASQSVSSAVAWYQQKPGKAPKLLIYSASSLYSGVPSRFSGSRSGTDFTLTISSLQPEDFATYYCQQYYWPITFGQGTKVEIKLEDKTHTKVEPKTSDKTHTCPPCPAPELLGGPSVFLFPPKPKDTLMISRTPEVTCVVVDVSHEDPEVKFNWYVDGVEVHNAKTKPREEQYNSTYRVVSVLTVLHQDWLNGKEYKCKVSNKALPAPIEKTISKAKGQPREPMVFDLPPSREEMTKNQVSLWCMVKGFYPSDIAVEWESNGQPENNYKTTPPVLDSDGSFFLYSKLTVDKSRWQQGNVFSCSVMHEALHNHYTQKSLSLSPGKSGSETPGTSESATPESGGGEVQLVESGGGLVQPGGSLRLSCAASGFNIHSSSIHWVRQAPGKGLEWVAATYSSFGSITYADSVKGRFTISADTSKNTAYLQMNSLRAEDTAVYYCARYHHPFGYALDYWGQGTLVTVSSGTTAASGSSGGSSSGADIQMTQSPSSLSASVGDRVTITCRASQSVSSAVAWYQQKPGKAPKLLIYSASSLYSGVPSRFSGSRSGTDFTLTISSLQPEDFATYYCQQGVYLFTFGQGTKVEIK

TOPFLASH Maximal Signal (% Wnt3a maxima) [2]: 22 % Wnt3a maxima
B2: CH3 (Dia-CH3-Dia; paratopes 5019; 2539) (bispecific antibody)
chain: MNLLLILTFVAAAVAEFEVQLVESGGGLVQPGGSLRLSCAASGFNIGSSSIHWVRQAPGKGLEWVASIYSAFASTSYADSVKGRFTISADTSKNTAYLQMNSLRAEDTAVYYCARYHFPFGFALDYWGQGTLVTVSSGGGGSDIQMTQSPSSLSASVGDRVTITCRASQSVSSAVAWYQQKPGKAPKLLIYSASSLYSGVPSRFSGSRSGTDFTLTISSLQPEDFATYYCQQGVYLFTFGQGTKVEIKDKTHTKVEPKTSDKTHTCPPCPGQPREPQVYTLPPSREEMTKNQVSLTCLVKGFYPSDIAVEWESNGQPENNYKTTPPVLDSDGSFFLYSKLTVDKSRWQQGNVFSCSVMHEALHNHYTQKSLSLSPGKGTTAASGSSGGSSSGAGRTEVQLVESGGGLVQPGGSLRLSCAASGFNISYSSIHWVRQAPGKGLEWVAYISSYYGYTYYADSVKGRFTISADTSKNTAYLQMNSLRAEDTAVYYCARAHYFPWAGAMDYWGQGTLVTVSSGGGGSDIQMTQSPSSLSASVGDRVTITCRASQSVSSAVAWYQQKPGKAPKLLIYSASSLYSGVPSRFSGSRSGTDFTLTISSLQPEDFATYYCQQYSWGPFTFGQGTKVEIK

TOPFLASH Maximal Signal (% Wnt3a maxima) [2]: 42 % Wnt3a maxima
B3: Fab-Dia (paratopes 5016; 2540/2542) (bispecific antibody)
heavy: EVQLVESGGGLVQPGGSLRLSCAASGFNIHSSSIHWVRQAPGKGLEWVAATYSSFGSITYADSVKGRFTISADTSKNTAYLQMNSLRAEDTAVYYCARYHHPFGYALDYWGQGTLVTVSSASTKGPSVFPLAPSSKSTSGGTAALGCLVKDYFPEPVTVSWNSGALTSGVHTFPAVLQSSGLYSLSSVVTVPSSSLGTQTYICNVNHKPSNTKVDKKVEPKSCDKTHTGGSGGEVQLVESGGGLVQPGGSLRLSCAASGFTISYSSIHWVRQAPGKGLEWVASISPYYGYTYYADSVKGRFTISADTSKNTAYLQMNSLRAEDTAVYYCARSSYFPWFSAMDYWGQGTLVTVSSGGGGSDIQMTQSPSSLSASVGDRVTITCRASQSVSSAVAWYQQKPGKAPKLLIYSASSLYSGVPSRFSGSRSGTDFTLTISSLQPEDFATYYCQQYYWPITFGQGTKVEIK
light: DIQMTQSPSSLSASVGDRVTITCRASQSVSSAVAWYQQKPGKAPKLLIYSASSLYSGVPSRFSGSRSGTDFTLTISSLQPEDFATYYCQQGVYLFTFGQGTKVEIKRTVAAPSVFIFPPSDEQLKSGTASVVCLLNNFYPREAKVQWKVDNALQSGNSQESVTEQDSKDSTYSLSSTLTLSKADYEKHKVYACEVTHQGLSSPVTKSFNRGECGGGGSEVQLVESGGGLVQPGGSLRLSCAASGFTISSYYIHWVRQAPGKGLEWVASIYSSYGYTSYADSVKGRFTISADTSKNTAYLQMNSLRAEDTAVYYCARTVRGSKKPYFSGWAMDYWGQGTLVTVSSGGGGSDIQMTQSPSSLSASVGDRVTITCRASQSVSSAVAWYQQKPGKAPKLLIYSASSLYSGVPSRFSGSRSGTDFTLTISSLQPEDFATYYCQQYYFLITFGQGTKVEIK

TOPFLASH % Wnt Maxima [1]: 14 % Wnt Maxima
B4: CM0299 (FZD IgG-LRP Diabody; paratopes 5016; 2539) (bispecific antibody)
heavy: not shown
light: DIQMTQSPSSLSASVGDRVTITCRASQSVSSAVAWYQQKPGKAPKLLIYSASSLYSGVPSRFSGSRSGTDFTLTISSLQPEDFATYYCQQGVYLFTFGQGTKVEIKRTVAAPSVFIFPPSDEQLKSGTASVVCLLNNFYPREAKVQWKVDNALQSGNSQESVTEQDSKDSTYSLSSTLTLSKADYEKHKVYACEVTHQGLSSPVTKSFNRGEC

TOPFLASH % Wnt Maxima [1]: 1 % Wnt Maxima
B5: CM0301 (FZD IgG-LRP scFv; paratopes 5016; 2542) (bispecific antibody)
heavy: not shown
light: B4 light

TOPFLASH % Wnt Maxima [1]: 5 % Wnt Maxima
B6: CM0300 (FZD IgG-LRP scFv; paratopes 5016; 2539) (bispecific antibody)
heavy: not shown
light: B4 light
